Results taken from article doi:10.1101/2024.09.25.614941.
Like-named read-outs stand apart in the source and are kept apart here.

Tests used:
PfSir2A = molecular target: T1, PfSir2A (UniProt Q8IE47); assay: EMSA
T1 sequence: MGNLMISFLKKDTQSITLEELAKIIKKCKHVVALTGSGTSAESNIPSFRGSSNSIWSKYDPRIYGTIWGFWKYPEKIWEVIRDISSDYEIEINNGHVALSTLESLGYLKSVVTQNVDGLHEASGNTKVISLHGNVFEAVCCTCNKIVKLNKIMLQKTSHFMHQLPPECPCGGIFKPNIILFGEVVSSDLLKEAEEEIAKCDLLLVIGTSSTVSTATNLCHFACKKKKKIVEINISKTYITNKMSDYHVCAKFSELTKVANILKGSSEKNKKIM

[1] = molecular target: recombinant human 601-positioned nucleosome with histone H3 acetylated at lysine 9 (H3K9Ac dNuc) (human) (UniProt P68431); assay: native gel or EMSA

H3K9Ac dNuc (human 601-positioned nucleosome)
Kd (PfSir2A; histone H3 K9 acetylated, no DNA modification stated): 1400 nM

601 nucleosome assembly sequence DNA, 147 bp
Kd (PfSir2A): 4000 nM

B1: Plasmodium falciparum silent information regulator 2A (PfSir2A) (enzyme)
chain: MGNLMISFLKKDTQSITLEELAKIIKKCKHVVALTGSGTSAESNIPSFRGSSNSIWSKYDPRIYGTIWGFWKYPEKIWEVIRDISSDYEIEINNGHVALSTLESLGYLKSVVTQNVDGLHEASGNTKVISLHGNVFEAVCCTCNKIVKLNKIMLQKTSHFMHQLPPECPCGGIFKPNIILFGEVVSSDLLKEAEEEIAKCDLLLVIGTSSTVSTATNLCHFACKKKKKIVEINISKTYITNKMSDYHVCAKFSELTKVANILKGSSEKNKKIM
Kd [1]: 1400 nM
